± gives the uncertainty stated by the source.
Assay: amyloid nucleation score (Sup35N fusion, yeast selection) (log enrichment); library NNK3; higher = more nucleation; inactive = no reads after selection
Outline: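 Nucleation score: DiMSum log enrichment of output over input reads, centred on the mode score of non-aggregating sequences. Only sequences with at least 100 input reads were kept. Reads came from Illumina sequencing of plasmid inserts before and after 7 days of growth at 30°C without adenine and uracil, in psi-negative yeast expressing Sup35N fused to peptides of 20 random codons after 24 hours of induction with 100 μM copper sulfate.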

| Substance | amyloid nucleation score |
| --- | --- |
| ENTAYWDLSGRLANQLGWRL | inactive |
| ENYLSPTSKMTMIWGCILWW | inactive |
| EPCSLPTSGPMGMVGNIKSG | inactive |
| EPGILLM | inactive |
| EPQYDSYTGGVSAFVVLKEH | inactive |
| EQIGGI | inactive |
| ERALIDSHPGTWLRRMTVNR | inactive |
| ERMQHGSLSVRYFKKSSVSG | inactive |
| ERVNVVR | inactive |
| ESCWHLAEVRVIYGHRSMRP | 0.854 ± 0.2 |
| ESGNSSAFMAVMRISGTDVV | inactive |
| ESKTCVVHLSAKCSLSEERT | inactive |
| ESNVVPLNSHR | inactive |
| ESPAASMVLHRGRLVVCSLS | inactive |
| ESVRGRLFRV | inactive |
| ESWCM | inactive |
| ESYLQRPRTSTRMFVMRLKV | inactive |
| ESYRTKFIVFGWGL | 0.835 ± 0.12 |
| ETAYSASVRDT | inactive |
| ETDCRSAQSIC | inactive |
| ETSITHLGILAVLGCNNGSE | inactive |
| EVAWVYEYQL | inactive |
| EVDLLSVNPGVYWDLDWIWF | -0.292 ± 0.88 |
| EVFLIIIVKMVNGLSRESRC | inactive |

| Substance | amyloid nucleation score |
| --- | --- |
| EVMLYRQHHDVRHEHSGYLT | inactive |
| EVPTRLDKMNENCNREDSAP | inactive |
| EVSHSVEQYFSFMCHHTWAP | inactive |
| EVVSLLTFMLASLLSISVVN | inactive |
| EWQSYYSKQRIGSGPFQLFC | 0.179 ± 0.3 |
| EWTVNMNSYLLVSVAYGCGS | inactive |
| EYMCACSLEILVL | inactive |
| EYNPQLSRNSNDLYADELKE | inactive |
| EYSRMSSNQMVYSLVIFHNL | 0.509 ± 0.33 |
| FAFSNLTKPVFKI | inactive |
| FAGEATVDTWTIFMCVIRGW | -0.225 ± 0.53 |
| FAKFAKSYNRPITVVLANCS | inactive |
| FALMFLSWYNRKSVSRPCTE | inactive |
| FAMMDELRRMWARSACSTRV | inactive |
| FANSY | inactive |
| FANYGEKIWCFGAMLGKRLS | inactive |
| FCAINP | inactive |
| FCFFSVSLDVLVHSGIC | 0.417 ± 0.19 |
| FCFIHIFNHNSRTNF | inactive |
| FCFKSLALELPIQKY | inactive |
| FCFNGRCIFFYSSSLYVFGF | inactive |
| FCFRDIYKRSMSRSAYDSG | inactive |
| FCGNLEATYRSRFRSNAHSA | 0.698 ± 0.3 |
| FCLFDFGILG | inactive |

| Substance | amyloid nucleation score |
| --- | --- |
| FCLFLSCGDKSILGA | inactive |
| FCRMVPLIEWSVTRFRDCVG | inactive |
| FCTPI | inactive |
| FDACLTERVVGISKDTDTSG | inactive |
| FDFWEDRVCPIYNCLGCGKL | inactive |
| FDGFLNFVITSRSNVF | inactive |
| FDRNSPTVLFRLRWEYF | inactive |
| FDRSSGKRMVL | 0.466 ± 0.21 |
| FDVVVIYATGVCFLATYYQG | inactive |
| FECRQ | inactive |
| FEECGVGPYVTKREATWFNG | inactive |
| FELFKKGRSI | 0.898 ± 0.23 |
| FESMGFHPRSVIYEYVCELN | inactive |
| FEWLMGRHLYISLRLHMRRS | inactive |
| FFANKYSLFAVVTMLANFLY | inactive |
| FFEFRSASYWGPSQYRNMCT | inactive |
| FFENWKLGDFAYRRIGTLLK | -0.515 ± 0.66 |
| FFFVMSRRANVIGSLEDRSD | 0.936 ± 0.11 |
| FFKFFWFSRRPISSFLGLCV | 0.708 ± 0.15 |
| FFLPSG | inactive |
| FFLYSNIFQLS | 2.32 ± 0.092 |
| FFNRGKVAETGFIWSMVVV | inactive |
| FFNVELLMIDCGFYEFHTDD | 2.1 ± 0.056 |
| FFPAMRTCWGKSGCARPYA | inactive |

| Substance | amyloid nucleation score |
| --- | --- |
| FFRSCWCFVLLLNDCMITSL | inactive |
| FFRVYYRSTGGVNM | inactive |
| FFTRSNVLRSVCFSSPITLW | inactive |
| FFVFVR | 1.3 ± 0.15 |
| FFVLGRSTMSWLR | inactive |
| FFVLYRLRELPPAQLMMKAA | inactive |
| FFVQSGIIEELYTW | 0.173 ± 0.31 |
| FFVYVEHRCSYNGRTSDIFY | -0.185 ± 0.51 |
| FFYDLMYLIMV | inactive |
| FFYSVLCLLRAVLVDSNLGW | inactive |
| FFYSYGRLNPKYDRVYISFG | -0.661 ± 0.98 |
| FFYWSWVQPEPY | inactive |
| FFYYLRSVLHSSYLFRRDVI | inactive |
| FGCQTGWRFRFINSNNR | 1.25 ± 0.14 |
| FGFPTFFSMTV | inactive |
| FGGVGAW | inactive |
| FGIKFVIQVDCRHIMHNCVN | 0.077 ± 0.87 |
| FGIWFGRNLGVGMDTKMSRF | inactive |
| FGKGVCRLD | inactive |
| FGNLLVLSYDEDCNAATWVR | inactive |
| FGQCNQVCCSEWDKD | inactive |
| FGQVKSCLAPCKSAAKH | inactive |
| FGRSVDFMVIHFCTTY | inactive |
| FGSHYSFRIQKVFFAVQRSP | 2.41 ± 0.082 |

| Substance | amyloid nucleation score |
| --- | --- |
| FGSNTGYVIEGRLAVGFEKL | inactive |
| FGSSMYRMKPVDC | inactive |
| FGVSNRMWRKSRNLSGSPRA | inactive |
| FGVYKLSWNP | 0.044 ± 0.41 |
| FGYSLMLVTACVLRCQSLWS | inactive |
| FHGFLYSAFSSDG | inactive |
| FHIPLSQRCLAPFCNAHL | inactive |
| FHKKMCTWIDELVIAVQFRD | inactive |
| FHLYCTIITLACCIMVWNCQ | 1.33 ± 0.14 |
| FHNFVRHIYAGGNRP | inactive |
| FHSAL | inactive |
| FHSQYEGAEERSPRNVLMAR | inactive |
| FHVSCSSFSKWNHENWHNLK | 0.006 ± 0.56 |
| FIAFWCVNLRTL | inactive |
| FICFNFHRKECVEKASSSCK | 1.39 ± 0.064 |
| FIDNRGSDSSTICCYNYAAQ | 0.407 ± 0.61 |
| FIEKAC | inactive |
| FIILQFVGFLHNTGFWYQLG | 0.217 ± 0.25 |
| FIIVPKWSCFLVSSMKFRVV | inactive |
| FILIYDRYRGF | 1.26 ± 0.095 |
| FIVDVYICAVSLLVGFLDAE | inactive |
| FIVFTDF | inactive |
| FIVLCALLWFCLNWSDLLKF | inactive |

From the supplement of paper PMC12042874
